Assay results reported in the Human Domainome abundance scans (Beltran et al. 2025).

B1: GAS2-like protein 1, residues 209 to 276; numbered along this chain, Q99501 (parent)
chain: DELVREILGRCTCPDQFPMIKVSEGKYRVGDSSLLIFVRVLRSHVMVRVGGGWDTLEHYLDKHDPCRC
B2: E3 ubiquitin-protein ligase TRIM36, residues 208 to 252; numbered along this chain, Q9NQ86 (parent)
chain: KILMCPEHETERINMYCELCRRPVCHLCKLGGNHANHRVTTMSSA

Variants of: B1
Assay: abundance fitness (aPCA) (normalised: wild type 0, dead -1); higher = more abundant; growth selection in yeast, the domain comes from the species named
Settings: Homo sapiens

Abundance fitness: each site, then its substitutions
E6: R -0.165 | Y -0.694 | D -0.136 | S -0.205 | N -0.431 | C -0.701 | Q -0.071 | K -0.151 | M -0.309 | P -0.864 | I -0.521 | V -0.642 | L -0.446 | G -0.347 | T -0.141 | H -0.452 | F -0.708 | W -0.821
D1: L -0.761 | P -0.517 | S -0.205 | E -0.087 | C -0.657 | N -0.536 | F -0.55 | T -0.707 | V -0.653 | A -0.623 | Y -0.574 | G -0.596 | K -0.233 | H -0.693 | R -0.624 | W -0.621
R5: A 0.056 | P -0.947 | K 0.091 | D -0.161 | S 0.093 | W -0.126 | Q 0.084 | T -0.059 | V -0.584 | E 0.056 | H -0.15 | C -0.316 | I -0.465 | G -0.158 | N 0.194 | Y -0.185 | F -0.257 | L -0.178
L3: M -0.034 | C -0.117 | K -0.06 | H -0.34 | I -0.129 | S -0.459 | V -0.324 | F -0.221 | P -0.711 | R 0.01 | T -0.526 | N -0.675 | E -0.627 | D -0.559 | Y -0.268 | W -0.643 | Q -0.025
L8: Y -1.05 | K -0.948 | T -0.414 | A -0.352 | S -0.532 | V -0.071 | H -0.436 | I -0.002 | Q -0.323 | P -0.819 | M -0.254 | N -0.793 | D -0.702 | G -0.819 | R -0.754 | F -0.704 | W -0.886 | E -0.737 | C -0.47
E2: P -0.218 | T 0.012 | Y -0.057 | N 0.073 | C -0.282 | A -0.263 | M -0.224 | H -0.006 | K 0.031 | R 0 | S -0.06 | D 0.149 | F 0.1 | V -0.434
I7: P -1.04 | W -0.748 | R -0.85 | T -0.38 | C -0.365 | H -0.473 | M -0.273 | L -0.012 | D -0.704 | V -0.219 | G -0.763 | Y -0.275 | E -0.128 | K -0.367 | Q 0.069 | N -0.74
V4: K -0.685 | M -0.34 | G -0.966 | D -0.888 | I 0.049 | C -0.717 | A -0.804 | H -0.855 | T -0.833 | R -0.71 | E -0.463 | Q -1.01 | N -0.876 | S -0.836 | W -0.796 | F -0.35 | L -0.388
G9: A 0.007 | T -0.346 | H -0.221 | Q 0.061 | F -0.399 | E 0.03 | I -0.572 | R -0.204 | K -0.12 | L -0.445 | N -0.076 | D 0.107 | P -0.818 | S 0.077 | M -0.127 | C -0.54

Variants of: B2
Assay: as above
Settings: Homo sapiens

Abundance fitness, by site and new letter:
G31: E -0.111 | A -0.034 | H -0.08 | L -0.259 | S -0.007 | N -0.058 | F -0.218 | R -0.048 | D -0.109
R21: E 0.171 | T -0.061 | K 0.108 | F -0.425 | G -0.116 | L -0.084
P6: D -0.092 | V -0.069 | T 0.018
E18: Y -0.416 | G -0.123 | K -0.172 | A -0.145
M42: L -0.031 | W -0.071 | N -0.059 | E 0.16 | G 0.123 | D 0.039 | Q 0.067 | T 0.097
C28: W -0.91 | P -0.579 | K -0.592 | M -0.723 | S -0.445 | F -1.14 | T -0.777
L3: A -0.001 | N -0.013 | T 0.036
A35: W -0.309 | R -0.129 | H -0.149 | E 0.009 | S -0.052
E7: Q -0.041 | H 0.01 | V -0.011 | W -0.315
L27: C -0.196 | Y -0.222 | A 0.052 | S -0.003 | I -0.041
E9: R -0.072 | T 0.053 | A -0.043 | V -0.051
G32: V -0.163 | C -0.132 | D -0.003 | T -0.07 | N -0.228 | P -0.015 | H -0.267
C17: E -0.763 | G -0.733 | Q -0.954 | S -0.897 | L -1.04
M4: W -0.191 | G -0.238 | C -0.075
R12: L -0.034
V39: W -0.138
K29: G -0.009 | V 0.004 | S 0.003 | Q 0.019
N36: K -0.023 | C -0.017 | I -0.225 | Y -0.147 | T -0.024 | L -0.097
I2: Y -0.532 | L -0.083 | K -0.234 | V -0.157 | S -0.19
E11: R -0.602 | S -0.132 | V -0.126
P23: V -0.081 | T 0.019 | S -0.058 | N -0.032
V24: K -0.533 | M -0.133 | S -0.446
C20: S -0.679 | D -0.393 | A -0.652 | R -0.561 | E -0.491 | W -1.16 | Q -0.504
S43: V -0.075 | N -0.042
R38: G 0.108 | W 0 | E 0.085 | K -0.006 | N -0.002 | S 0.018
C5: N -0.84 | W -1.41 | V -0.907 | Y -1
L19: C 0.137 | K 0.052 | F -0.287
S44: K -0.212 | M -0.138
T10: H -0.039 | D -0.132 | S -0.078
H8: F -0.795 | W -1.6
C25: Q -0.532 | I -0.814 | G -0.556 | L -0.81
H26: T -0.226 | M -0.237 | E -0.022
H34: W -0.733
M15: T -0.08 | V -0.309 | R -0.329
H37: W -0.44 | N -0.231 | M -0.298
R22: M -0.163 | S 0.047 | T -0.09 | N -0.291 | H 0.013 | W -0.34
T41: A -0.111 | Y -0.29 | G 0.003
Y16: V -0.437 | A -0.264
A45: Q -0.21 | D 0.078
L30: V 0.026 | D 0.083 | Y -0.549 | T 0.096 | A 0.094 | H -0.078
T40: E -0.04 | D 0.039 | Y -0.191 | I -0.265 | A -0.027 | V -0.023
I13: P 0.166 | W -0.035
K1: W -0.508 | Y -0.497 | S -0.396
N33: V 0.039 | T 0.044 | Q 0.073 | R -0.066 | F -0.125
N14: T 0.172 | V 0.034 | Q 0.018 | H 0.055 | A -0.037
